In patent publication US20140348836A1 (published 2014):
Where a chain is given by its changes, count along the chain named. In names and notes the source's numbering stands. Values belong to the binder of their own block, whether it stands above or below them.

Legend:
[1] = molecular target: T1, CD40hfc (R&Dsystems, USA) (UniProt P25942 21-193); experiment: SPR, physiological pH and 37 C
T1 construct: Bought reagent; also called immobilized CD40 receptor; target; not shown: Fc part ('hfc') of the bought fusion
Procedure: (§1) The affinity measures of purified antibodies by surface plasmon resonance using the Biacore 3000 instrument was performed according to manufacturer's protocols.
(§2) The CD40hfc (R&Dsystems, USA) was immobilized to the BIAcore sensorchip, CMS, using conventional amine coupling. The anti-CD40 antibodies of the invention, (serially diluted 1/3 from 1-0.012 nM) were analysed for binding in HBS-P (GE, BR-1003-68) at a flow rate of 30 μl/min at 37° C. and pH 7.3. The association was followed for 3 minutes and the dissociation for 10 minutes. Regeneration was performed twice using 50 mM NaOH for 30 seconds. The kinetic parameters and the affinity constants were calculated using BlAevaluation 4.1 software.

[2] = molecular target: T1, CD40hfc (R&Dsystems, USA); experiment: SPR (Biacore 3000), CD40hfc amine-coupled on chip, antibody as analyte, 37 C, acetate buffer pH 5.4
Procedure: as §1, §2
Alternatively, samples were incubated in Acetate buffer pH 5.4, 10 mM Acetate, 150 mM NaCl, 0.005% T20, at 37° C.

[3] = molecular target: T2, human CD40 on cells (human, UniProt P25942 21-277); experiment: cell-based or functional assay
[4] = molecular target: T2, human CD40 on cells; experiment: cell-based or functional assay; remark: listed apart in the source
[5] = molecular target: T1, CD40hfc (R&Dsystems, USA); experiment: SPR (Biacore 3000), CD40hfc amine-coupled on chip, antibody as analyte, 37 C, pH 7.3
Procedure: as §1, §2

[6] = molecular target: T2, human CD40 on cells; experiment: flow cytometry (FACS) on RAMOS cells, anti-human Ig F(ab')2-FITC detection, MFI
Procedure: (§3) The human Burkitt's lymphoma cell line RAMOS was used for binding analysis (ECACC, Sigma Aldrich, USA). The unconjugated anti-CD40 antibodies of the invention were assayed for binding to RAMOS cells.
(§4) RAMOS cells, approximately 125,000 cells, were incubated with anti-CD40 antibody, serially diluted 1/3 from 30-0.0015 μg/ml, for 30 minutes at 4° C. The cells were washed twice with FACS buffer and the secondary antibody, anti-human Ig Rabbit F(ab′)2/FITC (DAKO, Glostrup, Denmark), was subsequently added to the cells for another 30 minutes at 4° C. The cells were washed and analysed on a FACScalibur instrument, according to the manufacturer's instructions (Becton Dickinson, USA) and then the mean fluorescent intensity (“MFI”) was determined.

[7] = molecular target: T2, human CD40 on cells; experiment: flow cytometry (FACS) on RAMOS cells
Procedure: as §3, §4

[8] = molecular target: T2, human CD40 on cells; experiment: cell-based or functional assay; remark: listed apart in the source
[9] = molecular target: T2, human CD40 on cells; experiment: cell-based or functional assay; remark: listed apart in the source

T2 sequence (P25942 21-277): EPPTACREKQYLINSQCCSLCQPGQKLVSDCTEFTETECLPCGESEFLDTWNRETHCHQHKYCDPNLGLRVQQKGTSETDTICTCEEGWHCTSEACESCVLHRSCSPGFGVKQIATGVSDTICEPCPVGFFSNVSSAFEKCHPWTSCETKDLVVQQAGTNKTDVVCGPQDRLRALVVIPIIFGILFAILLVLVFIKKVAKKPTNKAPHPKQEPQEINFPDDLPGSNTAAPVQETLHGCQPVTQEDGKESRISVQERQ
T1 sequence (P25942 21-193 limits assumed): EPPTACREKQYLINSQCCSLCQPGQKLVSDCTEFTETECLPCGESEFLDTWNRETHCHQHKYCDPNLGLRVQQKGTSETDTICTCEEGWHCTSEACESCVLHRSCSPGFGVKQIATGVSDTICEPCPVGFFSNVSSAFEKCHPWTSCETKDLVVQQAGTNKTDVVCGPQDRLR

B1: Antibody clone A4 (antibody, human IgG1, lambda, V domains shown)
VH: EVQLLESGGGLVQPGGSLRLSCAASGFTFSTYGMHWVRQAPGKGLEWLSYISGGSSYIFYADSVRGRFTISRDNSENALYLQMNSLRAEDTAVYYCARILRGGSGMDLWGQGTLVTVSS
VL: QSVLTQPPSASGTPGQRVTISCTGSTSNIGAGYKVYWYQQLPGTAPKLLIYGNINRPSGVPDRFSGSKSGTSASLAISGLRSEDEADYYCAAWDDSLSGLVFGGGTKLTVLG
notes: Tested as purified antibody; full chains are assembled here from VH/VL plus these; also called A4 ANTI-CD40 ANTIBODY
fold improvement of affinity versus B44 [1]: ~100 fold
Kd [2]: 0.02 nM
koff [2]: 0.00022 s⁻¹
kon [2]: 1.1e+07 M⁻¹ s⁻¹
EC50 of CD80 up-regulation on monocyte-derived dendritic cells (FACS) [3]: 0.17 µg/mL
EC50 of CD86 up-regulation on monocyte-derived dendritic cells (FACS) [3]: 0.13 µg/mL
EC50 of MHC II up-regulation on monocyte-derived dendritic cells (FACS) [3]: 0.14 µg/mL
Maximum Fold Increase of CD80 on dendritic cells [3]: 599 fold
Maximum Fold Increase of CD86 on dendritic cells [3]: 149 fold
Maximum Fold Increase of MHC II on dendritic cells [3]: 851 fold
Allo DC/T IFN-γ EC50 [4]: 0.04 µg/mL
Allo DC/T IFN-γ Max [4]: 8.9 pg/mL
Kd [5]: 0.01 nM
koff [5]: 7.6e-05 s⁻¹
kon [5]: 7.3e+06 M⁻¹ s⁻¹
EC50 [6]: 0.007 µg/mL
fold increase in potency (binding to RAMOS cells) versus B44 [7]: ~100 fold
Activation of B cells, EC50 (proliferation of CD19+ B cells, Cell titer-Glo) [8]: 0.16 µg/mL
Fold change in potency versus B44 antibody (rescue of huCD40/WEHI-231 cells from apoptosis and growth arrest) [9]: 46 fold

B2: Antibody B44 (antibody, V domains shown)
VH: B1 VH
VL: B1 VL with T26S, K34D
notes: Parent agonistic anti-CD40 antibody from the n-CoDeR library; Run alongside the IgG clones as 'B44 antibody' and detected with anti-human Ig on RAMOS cells; also called B44 antibody; original anti-CD40 antibody
Kd [2]: 0.93 nM
koff [2]: 0.0055 s⁻¹
kon [2]: 6e+06 M⁻¹ s⁻¹
EC50 of CD80 up-regulation on monocyte-derived dendritic cells (FACS) [3]: 0.25 µg/mL
EC50 of CD86 up-regulation on monocyte-derived dendritic cells (FACS) [3]: 0.37 µg/mL
EC50 of MHC II up-regulation on monocyte-derived dendritic cells (FACS) [3]: 0.51 µg/mL
Maximum Fold Increase of CD80 on dendritic cells [3]: 584 fold
Maximum Fold Increase of CD86 on dendritic cells [3]: 132 fold
Maximum Fold Increase of MHC II on dendritic cells [3]: 811 fold
Allo DC/T IFN-γ EC50 [4]: 0.2 µg/mL
Allo DC/T IFN-γ Max [4]: 8.7 pg/mL
Kd [5]: 1.7 nM
koff [5]: 0.0045 s⁻¹
kon [5]: 2.7e+06 M⁻¹ s⁻¹
EC50 [6]: 0.38 µg/mL
Activation of B cells, EC50 (proliferation of CD19+ B cells, Cell titer-Glo) [8]: 0.204 µg/mL

B4: Antibody clone F6 (antibody, human IgG1, lambda, V domains shown)
VH: B1 VH
VL: B1 VL with T26S, K34D, G52R, D95G, S98L
fold improvement of affinity versus B44 [1]: ~100 fold
Allo DC/T IFN-γ EC50 [4]: 0.15 µg/mL
Allo DC/T IFN-γ Max [4]: 9 pg/mL
EC50 [6]: 0.0058 µg/mL
fold increase in potency (binding to RAMOS cells) versus B44 [7]: ~100 fold
Activation of B cells, EC50 (proliferation of CD19+ B cells, Cell titer-Glo) [8]: 0.4 µg/mL

B5: Antibody clone F9 (antibody, human IgG1, lambda, V domains shown)
VH: B1 VH
VL: B1 VL with T26S, K34G, D95G, S96T, S98T, V101L
fold improvement of affinity versus B44 [1]: ~100 fold
Activation of B cells, EC50 (proliferation of CD19+ B cells, Cell titer-Glo) [8]: 0.21 µg/mL

B6: Antibody clone C4 (antibody, human IgG1, lambda, V domains shown)
VH: B1 VH with S63T
VL: B1 VL
notes: Same VL changes as A4; VH carries S63T; also called C4 ANTI-CD40 ANTIBODY
fold improvement of affinity versus B44 [1]: ~100 fold
EC50 of CD80 up-regulation on monocyte-derived dendritic cells (FACS) [3]: 0.031 µg/mL
EC50 of CD86 up-regulation on monocyte-derived dendritic cells (FACS) [3]: 0.11 µg/mL
EC50 of MHC II up-regulation on monocyte-derived dendritic cells (FACS) [3]: 0.04 µg/mL
Maximum Fold Increase of CD80 on dendritic cells [3]: 609 fold
Maximum Fold Increase of CD86 on dendritic cells [3]: 164 fold
Maximum Fold Increase of MHC II on dendritic cells [3]: 395 fold
Allo DC/T IFN-γ EC50 [4]: 0.12 µg/mL
Allo DC/T IFN-γ Max [4]: 9 pg/mL
EC50 [6]: 0.0061 µg/mL
fold increase in potency (binding to RAMOS cells) versus B44 [7]: ~100 fold
Activation of B cells, EC50 (proliferation of CD19+ B cells, Cell titer-Glo) [8]: 0.288 µg/mL
Fold change in potency versus B44 antibody (rescue of huCD40/WEHI-231 cells from apoptosis and growth arrest) [9]: 52 fold

The next lines start with the values.

fold improvement of affinity versus B44 [1]: ~100 fold
Kd [2]: 0.033 nM
koff [2]: 0.00032 s⁻¹
kon [2]: 9.7e+06 M⁻¹ s⁻¹
Allo DC/T IFN-γ EC50 [4]: 0.03 µg/mL
Allo DC/T IFN-γ Max [4]: 8.5 pg/mL
Kd [5]: 0.014 nM
koff [5]: 0.00012 s⁻¹
kon [5]: 8.5e+06 M⁻¹ s⁻¹
EC50 [6]: 0.0049 µg/mL
fold increase in potency (binding to RAMOS cells) versus B44 [7]: ~100 fold
Activation of B cells, EC50 (proliferation of CD19+ B cells, Cell titer-Glo) [8]: 0.48 µg/mL
Fold change in potency versus B44 antibody (rescue of huCD40/WEHI-231 cells from apoptosis and growth arrest) [9]: 38 fold
B3: Antibody clone B9 (antibody, human IgG1, lambda, V domains shown)
VH: B1 VH
VL: B1 VL with T26S, K34N, D95G, S96G, S98L

fold improvement of affinity versus B44 [1]: ~100 fold
EC50 of CD80 up-regulation on monocyte-derived dendritic cells (FACS) [3]: 0.14 µg/mL
EC50 of CD86 up-regulation on monocyte-derived dendritic cells (FACS) [3]: 0.14 µg/mL
EC50 of MHC II up-regulation on monocyte-derived dendritic cells (FACS) [3]: 0.22 µg/mL
Maximum Fold Increase of CD80 on dendritic cells [3]: 641 fold
Maximum Fold Increase of CD86 on dendritic cells [3]: 195 fold
Maximum Fold Increase of MHC II on dendritic cells [3]: 481 fold
Allo DC/T IFN-γ EC50 [4]: 0.03 µg/mL
Allo DC/T IFN-γ Max [4]: 9.5 pg/mL
Kd [5]: 0.016 nM
koff [5]: 0.00013 s⁻¹
kon [5]: 8.5e+06 M⁻¹ s⁻¹
EC50 [6]: 0.0044 µg/mL
fold increase in potency (binding to RAMOS cells) versus B44 [7]: ~100 fold
Activation of B cells, EC50 (proliferation of CD19+ B cells, Cell titer-Glo) [8]: 0.46 µg/mL
B7: Antibody clone H11 (antibody, human IgG1, lambda, V domains shown)
VH: B1 VH
VL: B1 VL with T26S, K34N, D95G, S96G, S98L
notes: also called H11 ANTI-CD40 ANTIBODY

fold improvement of affinity versus B44 [1]: ~100 fold
Kd [2]: 0.022 nM
koff [2]: 0.00025 s⁻¹
kon [2]: 1.1e+07 M⁻¹ s⁻¹
Allo DC/T IFN-γ EC50 [4]: 0.08 µg/mL
Allo DC/T IFN-γ Max [4]: 9.5 pg/mL
Kd [5]: 0.011 nM
koff [5]: 9.6e-05 s⁻¹
kon [5]: 8.5e+06 M⁻¹ s⁻¹
EC50 [6]: 0.0062 µg/mL
fold increase in potency (binding to RAMOS cells) versus B44 [7]: ~100 fold
Activation of B cells, EC50 (proliferation of CD19+ B cells, Cell titer-Glo) [8]: 0.29 µg/mL
Fold change in potency versus B44 antibody (rescue of huCD40/WEHI-231 cells from apoptosis and growth arrest) [9]: 19 fold
B8: Antibody clone A5 (antibody, human IgG1, lambda, V domains shown)
VH: B1 VH
VL: B1 VL with T26S, K34H, N53S, A73G, D95S, L97S
